Assay results reported in patent publication US20240091260A1 (FRED HUTCHINSON CANCER CENTER, published 2024).

Columns and labels:
[1] = molecular target: T1, PRAME … (ALY) peptide in complex with HLA-A*0201 (HLA-A2) (human); assay: flow cytometry on THP-1 cells, against isotype control
T1 construct: whole, on cells; Naturally processed and presented on PRAME+/HLA-A2+ cells (THP-1, OCI-AML2, RS4;11 HLA-A2+, primary AML blasts, SK-N-SH); no recombinant complex was used; also called PRAME ALY/HLA-A2; PRAME/HLA-A2 complex
Procedure: (§1) Flow cytometry of xenograft cells. PE-conjugated Pr20 antibody was used to confirm PRAME expression on target cell lines and primary patient AML samples. Cell lines and primary samples were washed in 2% FBS in PBS, blocked with 20 ug/mL Fc receptor block (BD Pharmingen, catalog no. 564219) in PBS then stained with PE-conjugated anti-human Pr20 antibody and APC-conjugated HLA-A2 antibody for 20 minutes on ice. Labeled cells were washed with PBS and resuspended in 2% FBS/PBS prior to flow cytometric analysis.

[2] = molecular target: T1, PRAME … (ALY) peptide in complex with …; assay: flow cytometry on OCI-AML2 cells, against isotype control
Procedure: as §1

B1: Pr20 monoclonal antibody (antibody, V domains shown)
VH: QVQLVQSGAEVRKPGASVKVSCKASGGTFSSYAISWVRQAPGQGLEWMGRIIPILGIANYAQKFQGRVTITADKSTSTAYMELSSLRSEDTAVYYCARHYGQWWDYWGQGTLVTVSS
VL: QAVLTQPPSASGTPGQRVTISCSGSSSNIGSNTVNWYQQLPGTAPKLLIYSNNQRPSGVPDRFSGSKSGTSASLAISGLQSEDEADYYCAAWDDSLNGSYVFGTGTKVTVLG
notes: also called Pr20 mAb; Pr20 antibody
[1]
  MFI (fold change to isotype control): 2.75 fold
[2]
  MFI (fold change to isotype control): 5 fold
